Data on 3 substances can be found in IntAct's records for PubMed 16595635.

The target of assay [1] is tnfl6_human FASLG (UniProt P48023).
Assay [2] has the same target. The source holds these as a separate data set.
Assay [3] has the same target. This is another data set of the same source.

Chain of UniProt P48023 (P48023 whole entry): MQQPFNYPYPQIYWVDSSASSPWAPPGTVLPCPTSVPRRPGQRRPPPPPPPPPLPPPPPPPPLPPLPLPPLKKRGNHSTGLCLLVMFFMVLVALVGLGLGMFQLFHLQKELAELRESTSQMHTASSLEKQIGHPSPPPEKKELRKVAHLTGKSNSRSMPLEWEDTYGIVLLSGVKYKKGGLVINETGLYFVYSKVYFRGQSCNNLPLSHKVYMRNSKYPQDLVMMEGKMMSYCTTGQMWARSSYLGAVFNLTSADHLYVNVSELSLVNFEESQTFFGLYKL

Take “SH2/SH3 adapter protein NCK1 (Homo sapiens) (from UniProt P16333-1) W38K;W143K;W229K”: the “effect of a mutation on the interaction” value with tnfl6_human FASLG [1] and in the assay with tnfl6_human FASLG [2] was “disrupting interaction strength” in each case.
As to “SH2/SH3 adapter protein NCK1 (Homo sapiens) (from UniProt P16333-1) W143K”, the “effect of a mutation on the interaction” value with tnfl6_human FASLG [3] was “disrupting interaction strength”.
Still for that read-out and setting: the same measure for “SH2/SH3 adapter protein NCK1 (Homo sapiens) (from UniProt P16333-1) W229K”: “disrupting interaction strength”.
